The values below come from paper PMC3741163.

In the assay the target is CCR3 (UniProt P51677).
CCR3, sequence (P51677 whole entry): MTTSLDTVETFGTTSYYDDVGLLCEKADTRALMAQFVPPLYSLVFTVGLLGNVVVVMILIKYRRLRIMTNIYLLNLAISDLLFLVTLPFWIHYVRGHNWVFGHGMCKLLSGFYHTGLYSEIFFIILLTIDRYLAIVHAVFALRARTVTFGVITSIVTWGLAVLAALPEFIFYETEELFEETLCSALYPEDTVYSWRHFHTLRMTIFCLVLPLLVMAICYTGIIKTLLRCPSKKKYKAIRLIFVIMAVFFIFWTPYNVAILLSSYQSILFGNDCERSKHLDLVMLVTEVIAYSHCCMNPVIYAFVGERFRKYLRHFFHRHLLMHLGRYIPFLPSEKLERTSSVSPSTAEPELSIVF

B1: CCL18-6His (ligand)
chain: AQVGTNKELCCLVYTSWQIPQKFIVDYSETSPQCPKPGVILLTKRGRQICADPNKKWVQKYISDLKLNA
For the molecule B1, the IC50 for inhibition of migration of L1.2/CCR3 transfectants to 1 nM CCL11 stood at 168 nM.
